The nature of this data set: yeast display, Sf9 membrane polyspecificity reagent, FACS + sequencing; frameworks hold sequencing errors. The essentials:
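Galactose induction of a Saccharomyces cerevisiae BJ5465 synthetic nanobody display library ran 36–48 hours. The cells were then stained for 1 hour at 4 °C with 10% biotinylated, detergent-solubilized Sf9 membrane reagent, pulled down on streptavidin microbeads and FACS-sorted into low and high (top ~1%) gates on expression and reagent-binding fluorescence. Labels for polyreactivity follow the gate of origin.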
For “QVQRVDSGGGLVQAGGSLRLSCDPSGRTHDVNAMGWYRQAPWKERQLVAAISYSGGITYYADSVKGRFTISRDNAKNTVYLQMNSLKPEDTAVYYCAVVGGYPSYTVDYWGQGSQVTVSS”, the “polyreactivity (PSR sort gate)” value is listed as “low polyreactivity”. Regarding “QVQLVEAGGGLVQAGGSLRLSCAASGSIFKSYAMGRYRQAPGKEREFVASITKSGGTTYYADSVKGRFTISRDHAKNTVYLQMNSLKPEDTAVYYCAADWYRSSWTYNYLGQGTQVTVSS”, the “polyreactivity (PSR sort gate)” value is on record as “low polyreactivity”. With “QVQLVESGGGLVQAGGSLRLSCAASGRTFRYYAMGWYRQAPGKERELVAAIRTSGSTNYADSVKGRFTISRDNAKNTVYLQMNSLKPEDTAVYYCAAQPYWRYPYRAERDYWGQGTQVTVSS” the entry was “high polyreactivity”; with “QVQLVESGGGLVQAGGSLRLSCAASGSTFRRYAMGWYRQAPGKERELVAAISWSGGSTYYADSVKGRFTISRDNAKNTVYLQMNSLKPEDTAVYYCAARGVTSYWQDYDYWGQGTQVTVSS”, “low polyreactivity”. With “QVQLVESGGGLVQAGGCLRLSCAASGSIFWGYAMGWYRPAPGKERELVAAITDSGGRTYYADSVKGRFTISRDNAKNTVYVQMNSQKPEDTAVYYCAADYYSQYYYYAVPDRDYWGQGTQVTVSS” the entry was “low polyreactivity”; with “QVQIVESGGGLVQAGGSLRLSCAASGLIFDANAMGWYRQAPGKERELVAAISNGDSTYYADSVKGRFTISRDNAKNTVYLQMNSLKPEDTAVYYCNARIIYRKWLLRSGTFNYWGQGTQVTVSS”, “low polyreactivity”; with “QVQLVESAGGLVQAGGSLSLICAASGFIFDSYAMGWSRQAPGKERELVAAIDKRGGRTYYADSEKGRFTISRDNAKNTVYLQMNSLKPEDTAVYFCAADDYTGYGYWGQGTQVTVSS”, “high polyreactivity”. Regarding “QVQLVESGGGLVQAGGSLRLSCAASGFTFFVYAMGWYRQAPGKERELVAVITSGGTTNYADSVKGRFTISRDNAKNTVYLQMNSLKPEDTAVYYCNARGEKRGYYYWGQGTQVTVSS”, the “polyreactivity (PSR sort gate)” value is “high polyreactivity”. Turning to “QVQLVQSGGGLVQAGGSLRLSCAASGITFWGNAMGSYRQAPGKEREFIARINWSGGRTYYAESVKGRFTISRDNEKNNVYLQMNSLKPEDTAVYYCAATSLIYGYRTYDYWGQGTQVTVSS”, the “polyreactivity (PSR sort gate)” value is “high polyreactivity”. As for “QVQLQESGGGLVQAGGGLRLSCAASGTISGPHVMGWYRQAPGKEREFVAAINVGANTYYADNVKGRFTISRDNAKNTVYLQMNSLKPEDTAVYYRAAVYYGDIGHEYWGQGTQVTVSC”, the “polyreactivity (PSR sort gate)” value is reported as “low polyreactivity”.

Turning to “QVQLVESGGGLVQAGGSLRLSCAASGYIFLWYAMGWYRQAPGKERELVASISSGSTYYADSVKGRFTISRDNAKNTVYLLMNSLKPEDTAVYYCAAGWFASDYYYWGQGTQVTVSS”, the “polyreactivity (PSR sort gate)” value is on record as “low polyreactivity”. To “QVQLVESGGGLVQAGGSLRLTCAASGSTFYLNAMGWYRQATGKERELVAAITVSGGSTYYADSVKGRFTISRDNAKNTVYLQMNSLKPVDTAVYYCARELLSPTYQRWYYYWGQGTQVTVSS” belongs “low polyreactivity”; to “QVQLVESGGGLVQAGGSLSLSCAASGFIFPGNAKGWYRQAPGKERELVATISSGGSTKYADSVKGRFTISRDNANNTVYLQMNSLKPEDTAVYYCAARVYLGVFDYYYWGQGTQVTVSS”, “low polyreactivity”; to “QVQLVESGGGLVQAGGSLRLICAASGRIFVINAMGWYRQAPGKERELVAAITGGGSTNYADSVKGRFTISRDNAKNPVYLQMNSLKPEDTAVYYCAADYRPVRRFYYSRYDDWGQGTQVTVSS”, “low polyreactivity”. In the case of “QVQLVESGGGLVQAGGSLRLSCAASVRTFKYYAMGWYRQAPGKERELVASISRGGGSTYYADSVKGRFTISRDNAKNTVYLQMNSLKPDDTAVYYCAAYLRTRYIYCGQGTQVTVSS”, the “polyreactivity (PSR sort gate)” value was “high polyreactivity”. To “QVQLVESGGGLVQAGGSLRLSCAASGRTFLLYAMGWYRQAPGKERELVAAISIGGGSTRYADSVKGRFTISRDNAKNTVYLQMNSLKPEDTAVYYCAALGRRGGDYWGQGTEVTVSS” belongs “high polyreactivity”; to “QVQLVESGGGLVQAGGSLRLSCAASGRTFYDNTMGWYRQAPGKERELVAAINWSGTRTYYADSVKGRFTISRDNAKNTVYLQMNSLKPEDTAVYYCAADGPFRRTYGYWGQGTQVTVSS”, “low polyreactivity”; to “QVQHVETGGGLVQAGGSHRLSCAASGLIFDYNAMGWYTQAPRKERELDADISSGGSTYYADSVKGRFTISSDNGKNSVYLQMNSLKTEDTAVYYCATRRQAQYTRYYGSRQFYYWGQGTQVTVSS”, “high polyreactivity”. Consider “QVQLVESGGGLVQAGGSLRLSCAASGITFYKNAMGWYRPAPGKERELVAAISGRGGTTYYADSVKGRFTLSRDNAKNTVYVQMNSLKPEDTAVYYCNTVRWAWPYLKFDYWGQGTQVTVSS”, for which the “polyreactivity (PSR sort gate)” value is given as “high polyreactivity”. To “QVQLVESGGGLVQAGGSLRLSCAASGSTFNRYAMGWYIQAPGKERELVAAITRSGTSTYYADSVKGRFTISRDNAKNTVYLQMNSLKPEDTAVYYCAAVRYAVHFSYDYWGQGTQVTVSS” belongs “high polyreactivity”. To “QVQLVESGGGLVQAGGSLRLSCAASGFTFRRNAMGWYRQAPGKERELVASITINGGSTTYADSVKGRFTISRDNAKNTVYLQMNSLKPEDTAVYYCNKRYRTYRSVPQYEYWGQGTQVTVSS” belongs “high polyreactivity”; to “QVQLVESGGGLVQAGGSLSLSCAASGFTFGTNAMGWYRQAPGKERELVAAISSRGGSTYYADSVKGRFTISRDNAKNTVYLEMNSLKPEDTAVYYCARRVAGRQHEYGYWGLGTQVTVSS”, “high polyreactivity”; to “QVQLVESGGGLVQAGGSLRLSCAASGRIFVSYDMGWYRQAPGKEREFVAAIRRSGSSTYYADSVKGRFTISRDNAKNTVYLQMNSLKPEDTAVYYCAAYQRSRTLRRYDYWGQGTQVTVSS”, “high polyreactivity”.

With “QVQLVESGGGLVQAGGSLRLSCAASGSTISYYAMGWYRQAPGKERELVAAITRSGGSTYYADSVKGRFTISRDNAKNTFYLQMNSLKPEDTAVYYCAKGWRYFVGWGQRSRYYFWGQGTQVTVSS”, the “polyreactivity (PSR sort gate)” value was “high polyreactivity”. With “QGQLVESGGGLVQAGGSLRLSCAASGSTFRLYAMGWYRQAPGKERELVAAISQRGASTYADSVKGRFTISRDNAKNTLNLQMNSLKPEDTAFYYCSAVRNCRYWYRQYGFCGQGTQVTVSS” the entry was “high polyreactivity”; with “QVQLVESGGGLVQAGGSLRLSCAASGSIFGANVMGWYRQAPGKERELVAAISFSGGSTFYADSVKGRFTISRDNAKNTVYLQMNSLKPEDTAVYYCAASYGGKGVKYYYWGQGTQVTVSS”, “high polyreactivity”. Consider “QVQLVESGRGLFKAGGSLRLSCAASGSIFDGNAMGWYRQAPGKERELVATMSWCGGSTYYADSVKGRFTISRDNSKNNVYLQMYSVNPEETAVYHCGKTPYRRYRYGGYTYSTYDYWGQGTQVTVSS”, for which the “polyreactivity (PSR sort gate)” value is given as “low polyreactivity”. With “QVQLVESGGGLVQAGGSLRLSCAASGRIFRYYAMGWSRQAPGKERELVAAISSSGGSTYYADSVKGRFTISRDNAKNTVYLQMNSLKPEDTAVYYCAGVFRLGVGYEYWGQGTQVTVSS” the entry was “high polyreactivity”; with “QVQLVESGGGLVQAGGSLRLSCAASGGIFVPYAMGWYRQAPGKERELVAGITSGGSTNYADSVKGRFTISRDNAKNTVYLQMNSLKPVDTAVYYCAARRRPGGRYKSRVWYDYWGQGTQVTVSS”, “high polyreactivity”; with “QVQLVESGGGLVQAGGSLRLSCAASGVIFSLYAMGWYRQAPGKERELVAVITWSDGRTYYADSVKGRFTISRDNAKNTVYLQMNSLKPEDTAVYYCAAADWITEYDYWGQGTHVTVSS”, “low polyreactivity”. With “QVQLVESGGGLVQAGGSLRLSCAASGSIFILYAMGWYRQAPGKERELVAAISSTGTTYYADSVKGRFTISRDNAKNTVYLQMNSLKPEDSAVYYCAADIYPDWIYLLYGYWGQGTQVTVSS” the entry was “low polyreactivity”; with “QVQLVESGGGLVQAGGSLRLSCAASGRIFSVYDMGWYRQAPGKERELVAAISWSGGTTYYADSVKGRFTISRDNAKNTVYLQMNSLKPEDTAVYYCAARSRSRYDYWGQGTQVTVSS”, “high polyreactivity”.

In the case of “QVQLVESGGGLVQAGGSLRLSCAACGFIFSSNAMGWYTPAPGNERELVAAITGGGGRTRYADSVKGRFTISRDNAKNSVYLQMNSLKPEDTAVYYCNTVYYVYYRSYSYKGDYWGQGTQVTVSS”, the “polyreactivity (PSR sort gate)” value was “high polyreactivity”. Regarding “QVQLVESGGGLVQAGGSLRLSCAASGSTLGAYAMGWSRQAPGKERELVAAISRSGGNTYYADSVKGRFTISRDNAKNTVYLQMNSLKPDDTAVYYCAAVRLYRYDYWGQGTQVTVSS”, the “polyreactivity (PSR sort gate)” value is “low polyreactivity”.

Take “QVQLVESGGGLVQAGGSLRLSCAASGSIFYGNAMGWYRQAPGKERELVAAISESGGSTYYADSVKGRFTISRDNAKNTVYFQMNSLKPEDTAVYYCNSEAWGYYWWWGYDYWGHGTQVTVSS”: the “polyreactivity (PSR sort gate)” value is given as “low polyreactivity”. As to “QVQLVESGGGLVQAGGSLRLSCAASGYTFWDYALGCYRQAPGKERAFVAGISFSDGGTYYADSVKGRFTISRDNAKNTVYLQMNSLKPEDTAVYYCAATYPYSWVYSGYYYWGQGTQVTVSS”, the “polyreactivity (PSR sort gate)” value is on record as “low polyreactivity”. With “QVQLVESGGGLVQAGGSLRLSCAASGSIFPGYAMGWYRPAPGKERELVAAITDSGVSTYYADSVKGRFTISRDNAKNTVYLQMNSLKPEDTAVYYCARDNWQWYPSTWYDYWGQGTQVTVSS” the entry was “high polyreactivity”; with “QVQLVESGGGLVQAGGSLRLSCAASGSTFDAYAMGWYRQAPGKERQLVAAITHGGSTNYADSVKGRFTISRDNAKNTVYLQMNSLKPEDTAVYYCNAQHRTVWGIFGRFNYWGQATQVTVSS”, “low polyreactivity”. In the case of “QVQLVESGGGLVQAGGSLRLSCAASGFIFATNTMGWYRQAPGKERELVAASSTYYADSVKGRFTISRDNAKNTVYLQMNSLKPEDTAVYYCNADRDSYIGFVVWAGEYWGQGSQVTVSS”, the “polyreactivity (PSR sort gate)” value was “low polyreactivity”. In the case of “QVQLVESGGGLVQAGGSLRLICAASGRTFEDNAMGWYRQAPGKERELVAAISSDGSRNYADSVKGRFTISRDNAKNTVYLQMNSLKPEDTAVYYCNATVYWPYDWGTSDYWGQGTQVTVSS”, the “polyreactivity (PSR sort gate)” value is on record as “low polyreactivity”.

Take “QVQLVESGGGLVQAGGSLLLSCAASGFILYSYAMGWYRQAPGTEREFVSVISRGGGRTYYADSVKGRFTISRDNAKNTVYLQMNCLKPDDTAVYYCAATPSNVYAYEYWGQGTQVTVSS”: the “polyreactivity (PSR sort gate)” value is recorded as “low polyreactivity”.
